According to patent publication US20210277100A1 (SCHOLAR ROCK, published 2021):

T1: TGFβ3 growth factor (UniProt P10600 301-412)
T1 construct: domain: growth factor
T1 sequence (looked up): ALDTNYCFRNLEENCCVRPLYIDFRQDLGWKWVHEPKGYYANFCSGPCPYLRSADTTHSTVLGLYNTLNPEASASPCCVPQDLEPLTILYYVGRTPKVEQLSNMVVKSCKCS

T2: TGFβ2 growth factor (UniProt P61812 303-414)
T2 construct: domain: growth factor
T2 sequence (looked up): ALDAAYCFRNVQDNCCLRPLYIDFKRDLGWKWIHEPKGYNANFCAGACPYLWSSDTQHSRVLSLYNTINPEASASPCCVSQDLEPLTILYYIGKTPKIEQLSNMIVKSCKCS

B1: 4B16B9 (antibody, human IgG4 S228P, lambda, V domains shown)
VH: QMQLVQSGAEVKKPGSSVKVSCKASGGTFSSYAISWVRQAPGQGLEWMGGIIPMFGTTNYAQKFQGRVTIIADESTSTAYMELRSLRSDDTAVYYCARDREWEPAYGMDVWGQGTTVTVSS
VL: QSALTQPASVSGSPGQSITISCIGTSSDVGGYNYVSWYQQHPGKAPKLMIYDVSNRPSGVSNRFSGSKSGNTASLTISGLQAEDEAMYYCSAYTVSSTWVFGGGTKVTVLG
notes: Fully human, from a phage display scFv; also called proTGFβ1-GARP complex-selective antibody candidate
B2: 4B1C1 (antibody, human IgG4 S228P, kappa, V domains shown)
VH: EVQLVQSGGVVVQPGGSLRLSCAASGFTFDDYTMHWVRQAPGKGLEWVSLISWDGGSTYYADSVKGRFTISRDNSKNSLYLQMNSLRTEDTALYYCAKDADDSTFDIWGQGTMVTVSS
VL: ETTLTQSPATLSVSPGERVTLSCRASQSVSRNLAWYQQKPGQPPKLLIYWASTRESGVPDRFSGSGSGTDFTLTISSLQAEDVAVYYCQQYYSVPYTFGQGTKLEIKR
notes: Fully human, from a phage display scFv; also called 4B1Cl; proTGFβ1-GARP complex-selective antibody candidate

Key:
rGARP-proTGFβ1 = target: T3, rGARP-proTGFβ1; assay: biolayer interferometry (OctetRed 384)
T3 construct: not given
Protocol: (§1) The binding affinities of the proTGFβ1-GARP complex-selective antibody candidates to proTGFβ1-GARP complexes were measured by biolayer interferometry on an OctetRed 384 (Fortebio, Menlo Park, Calif.). Strepavidin biosensors (Fortebio, Cat. No. 18-5020) were loaded with biotinylated sGARP-proTGFβ1 complex at 20 μg/ml in sodium acetate buffer, pH 5, washed in the same buffer and transferred to wells containing 10 μg/mL proTGFβ1-GARP complex-selective antibody candidates in the same buffer. The dissociation constant was obtained by non-linear fitting of the responses to a steady state algorithm using Octet software (Table 4). Similar affinities were obtained by kinetic fitting.
(§2) proTGFβ1-GARP complex-selective antibody candidates were measured by biolayer interferometry on an OctetRed 384 (Fortebio, Menlo Park, Calif.) for selectivity for proTGFβ1-GARP complex over other protein complexes (FIG. 4).

TGFβ3 growth factor = target: T1, TGFβ3 growth factor; assay: BLI, OctetRed 384 (FIG. 4)
Protocol: as §1
(§3) To ascertain binding specificity, 4B1C1 and 4B16B9 were screened as above for binding to TGFβ1, TGFβ2, TGFβ3, proTGFβ1-LTBP1, proTGFβ1-LTBP3 and proTGFβ1-LRRC33. As described above, antibodies were tested at 10 μg/ml and antigens at 20 μg/ml and tested under the following conditions.
as §2

TGFβ2 growth factor = target: T2, TGFβ2 growth factor; assay: BLI, OctetRed 384 (FIG. 4)
Protocol: as §1, §3, §2

TGFβ1 growth factor [1] = target: T4, TGFβ1 growth factor (human, UniProt P01137 279-390); assay: BLI, OctetRed 384 (FIG. 4)
T4 construct: domain: growth factor; also called TGFb1 (soluble form)
T4 sequence (P01137 279-390 limits assumed): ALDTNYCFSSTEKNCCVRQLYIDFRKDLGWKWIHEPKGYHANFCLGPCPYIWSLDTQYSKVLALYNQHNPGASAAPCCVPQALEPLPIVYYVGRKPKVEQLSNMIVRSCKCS
Protocol: as §1, §3, §2

[2] = target: human proTGFβ1 in complex with GARP expressed on transfected HEK293 or Sw480 cells (human, UniProt Q14392 20-662; P01137 30-390); assay: cell-based or functional assay
human proTGFβ1 in complex with GARP expressed on transfected HEK293 or Sw480 cells, sequence (Q14392 20-662, chain 1 of 2): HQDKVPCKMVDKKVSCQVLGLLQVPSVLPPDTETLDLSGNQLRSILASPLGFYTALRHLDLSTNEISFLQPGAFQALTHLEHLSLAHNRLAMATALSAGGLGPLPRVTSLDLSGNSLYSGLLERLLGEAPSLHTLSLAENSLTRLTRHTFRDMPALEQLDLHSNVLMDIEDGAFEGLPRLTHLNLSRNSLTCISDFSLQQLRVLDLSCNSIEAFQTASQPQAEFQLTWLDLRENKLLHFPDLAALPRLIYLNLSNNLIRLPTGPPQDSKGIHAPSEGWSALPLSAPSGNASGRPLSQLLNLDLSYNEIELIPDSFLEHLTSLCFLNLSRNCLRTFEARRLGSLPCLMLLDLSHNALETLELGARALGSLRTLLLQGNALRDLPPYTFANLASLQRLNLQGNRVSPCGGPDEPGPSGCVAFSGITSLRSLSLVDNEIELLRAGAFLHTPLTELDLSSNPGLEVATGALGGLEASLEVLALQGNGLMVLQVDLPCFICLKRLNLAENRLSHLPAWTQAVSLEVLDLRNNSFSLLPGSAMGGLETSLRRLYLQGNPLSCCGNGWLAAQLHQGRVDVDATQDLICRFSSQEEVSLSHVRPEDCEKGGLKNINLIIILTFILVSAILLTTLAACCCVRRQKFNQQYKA
human proTGFβ1 in complex with GARP expressed on transfected HEK293 or Sw480 cells, sequence (P01137 30-390, chain 2 of 2): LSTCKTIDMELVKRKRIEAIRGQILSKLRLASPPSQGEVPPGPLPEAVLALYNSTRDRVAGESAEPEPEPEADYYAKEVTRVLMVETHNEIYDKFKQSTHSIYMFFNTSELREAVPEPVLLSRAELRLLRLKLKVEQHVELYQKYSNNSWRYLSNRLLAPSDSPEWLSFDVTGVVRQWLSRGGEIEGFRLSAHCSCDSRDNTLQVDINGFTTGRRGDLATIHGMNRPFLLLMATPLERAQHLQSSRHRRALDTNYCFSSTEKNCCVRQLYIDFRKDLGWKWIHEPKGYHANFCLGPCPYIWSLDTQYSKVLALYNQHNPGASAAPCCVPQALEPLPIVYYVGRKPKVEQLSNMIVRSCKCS

TGFβ1 growth factor [3] = target: T4, TGFβ1 growth factor; assay: BLI, OctetRed 384, antigen loaded on biosensor
Protocol: as §1, §3

hGARP-TGFβ1-LAP = target: T5, hGARP-TGFβ1-LAP (human); assay: biolayer interferometry (OctetRed 384)
T5 construct: not given
T5 sequence (Q14392 20-627, chain 1 of 2): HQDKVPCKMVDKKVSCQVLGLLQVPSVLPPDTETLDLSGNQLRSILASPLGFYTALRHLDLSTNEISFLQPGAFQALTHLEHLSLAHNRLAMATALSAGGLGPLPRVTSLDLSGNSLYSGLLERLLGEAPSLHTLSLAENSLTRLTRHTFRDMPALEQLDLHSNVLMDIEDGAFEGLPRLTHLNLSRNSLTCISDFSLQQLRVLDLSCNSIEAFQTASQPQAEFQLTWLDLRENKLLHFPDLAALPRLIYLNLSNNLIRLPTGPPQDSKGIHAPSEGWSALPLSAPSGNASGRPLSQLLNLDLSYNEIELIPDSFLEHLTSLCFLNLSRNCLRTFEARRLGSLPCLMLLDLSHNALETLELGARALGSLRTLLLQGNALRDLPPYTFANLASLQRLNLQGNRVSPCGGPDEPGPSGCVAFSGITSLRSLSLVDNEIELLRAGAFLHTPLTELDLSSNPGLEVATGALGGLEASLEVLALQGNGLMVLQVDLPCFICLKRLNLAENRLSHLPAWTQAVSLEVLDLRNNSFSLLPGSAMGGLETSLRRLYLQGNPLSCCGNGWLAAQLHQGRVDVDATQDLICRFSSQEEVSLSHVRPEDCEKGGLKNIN
T5 sequence (P01137 30-390, chain 2 of 2, further chain): as the sequence (P01137 30-390, chain 2 of 2) above
Protocol: as §1, §2

| Binder | Kd (rGARP-proTGFβ1) [nM] | binding result (TGFβ3 growth factor) | binding result (TGFβ2 growth factor) | binding result (TGFβ1 growth factor [1]) | IC50 of inhibition of TGFβ1 activation, TMLC reporter cells [2] [nM] | binding result (TGFβ1 growth factor [3]) | Kd (hGARP-TGFβ1-LAP) [nM] |
| --- | --- | --- | --- | --- | --- | --- | --- |
| B1 | 0.158 | no binding | no binding | no binding | 1.9 |  |  |
| B2 | 0.187 | no binding | no binding |  | 0.178 | no binding | 11.3 |
